The values that follow come from PMC9666628 (Nature Communications, 2022).

Common to all, as to assay: BLI; biotinylated peptide on streptavidin biosensor tips, chromodomain in solution at 5 or 1 µM; 25 °C; 25 mM HEPES pH 7.0, 150 mM NaCl, 1 mg/ml BSA, 0.01% Tween-20; steady-state fit, Langmuir model; values of single replicates
Details in all cases: both partners purified
On the technique in general: Biolayer interferometry detects binding as a change in optical thickness at a sensor tip.

Experiment [1] addresses T1, Cbx7.V1 chromodomain variant (protein used for BLI) (human, UniProt O95931 7-66, E8D (printed as the back-mutation D8E) | Q9D | V10I (printed as the …)).
T1 construct: chromodomain of human Cbx7 with the six substitutions of the phage-selected variant V1; residues numbered on full-length Cbx7; for BLI they were probably still on the protein; source: E. coli BL21(DE3), purified (Ni-NTA)
T1 sequence: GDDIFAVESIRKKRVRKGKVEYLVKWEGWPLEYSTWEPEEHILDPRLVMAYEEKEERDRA

For another experiment, the target named is T2, Cbx7.V1 back-mutant D8E (human, UniProt O95931 7-66, Q9D | V10I (printed as the back-mutation I10V) | K33E | P37L (printed as the …)).
T2 construct: chromodomain of human Cbx7, variant V1 with residue 8 put back to the wild type; residues numbered on full-length Cbx7; Tags probably still on the protein in BLI (removal is told for FP and ITC only); source: E. coli BL21(DE3), purified (Ni-NTA)
T2 sequence: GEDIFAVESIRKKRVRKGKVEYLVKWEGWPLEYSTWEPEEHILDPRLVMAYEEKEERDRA

In a further experiment the target is T3, Cbx7.V1 back-mutant I10V (human, UniProt O95931 7-66, E8D (printed as the back-mutation D8E) | Q9D | K33E | P37L (printed as the …)).
T3 construct: chromodomain of human Cbx7, variant V1 with residue 10 put back to the wild type; residues numbered on full-length Cbx7; Tags probably still on the protein in BLI (removal is told for FP and ITC only); source: E. coli BL21(DE3), purified (Ni-NTA)
T3 sequence: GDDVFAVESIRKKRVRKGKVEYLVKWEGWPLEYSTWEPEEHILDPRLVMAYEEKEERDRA

A further experiment addresses T4, Cbx7.V1 back-mutant E33K (human, UniProt O95931 7-66, E8D (printed as the back-mutation D8E) | Q9D | V10I (printed as the …)).
T4 construct: chromodomain of human Cbx7, variant V1 with residue 33 put back to the wild type; residues numbered on full-length Cbx7; Tags probably still on the protein in BLI (removal is told for FP and ITC only); source: E. coli BL21(DE3), purified (Ni-NTA)
T4 sequence: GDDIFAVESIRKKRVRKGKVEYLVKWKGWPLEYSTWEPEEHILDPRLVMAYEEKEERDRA

Another experiment has as its target T5, Cbx7.V1 back-mutant L37P (human, UniProt O95931 7-66, E8D (printed as the back-mutation D8E) | Q9D | V10I (printed as the …)).
T5 construct: chromodomain of human Cbx7, variant V1 with residue 37 put back to the wild type; residues numbered on full-length Cbx7; Tags probably still on the protein in BLI (removal is told for FP and ITC only); source: E. coli BL21(DE3), purified (Ni-NTA)
T5 sequence: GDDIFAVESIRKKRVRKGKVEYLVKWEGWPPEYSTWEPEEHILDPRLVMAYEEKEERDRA

The target of another experiment is T6, Cbx7.V1 back-mutant E38K (human, UniProt O95931 7-66, E8D (printed as the back-mutation D8E) | Q9D | V10I (printed as the …)).
T6 construct: chromodomain of human Cbx7, variant V1 with residue 38 put back to the wild type; residues numbered on full-length Cbx7; Tags probably still on the protein in BLI (removal is told for FP and ITC only); source: E. coli BL21(DE3), purified (Ni-NTA)
T6 sequence: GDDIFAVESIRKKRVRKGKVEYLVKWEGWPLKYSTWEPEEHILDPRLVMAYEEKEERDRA

Where “and” joins values, the source holds several entries; their conditions need not be identical. Equal values may be shown once.

B1: H3K9me3 peptide, biotinylated (peptide)
chain: ARTKQTARKSTGGKAPR
modifications: trimethyl-lysine at K9; biotin followed by an aminohexanoic acid linker at the N-terminus
On to B1, for which the Kd is 4.9 µM and 4.2 µM in experiment [1]; 5.3 µM and 4.7 µM with Cbx7.V1 back-mutant D8E; 4 µM and 3 µM with Cbx7.V1 back-mutant I10V; 8.5 µM and 12 µM with Cbx7.V1 back-mutant E33K; 2.7 µM and 3.3 µM in the experiment with Cbx7.V1 back-mutant L37P; 1.9 µM and 2.1 µM with Cbx7.V1 back-mutant E38K.

As usually defined, the Kd is the constant that tells how readily two partners part at equilibrium. High values mean weaker binding, low ones tighter binding.
